Results as given in PMC12915166 (2025).

T1: HA-2 (HA-2V allele), encoded by MYO1G peptide on HLA-A*02:01 (human)
T1 peptide: YIGEVLVSV

T2: HA-1 (HA-1H allele), encoded by ARHGAP45 peptide on HLA-A*02:06 (human)
T2 peptide: VLHDDLLEA


What was measured:
[1] = molecular target: T1, HA-2 (HA-2V allele), encoded by MYO1G …
[2] = molecular target: T2, HA-1 (HA-1H allele), encoded by …; assay: activation reporter or marker

Row | Binder | EC50 of peptide [1] [nM] | binding result [2]
1 | anti-HA-2V TCR clone 6 (TCR) alpha TRAV38-2DV8 TRAJ34 CDR3: AYRRFYNTDKLI beta TRBV19 TRBJ1-1 CDR3: ASRSAGYAEAF | 21 | 
2 | anti-HA-2V TCR clone 7 (TCR) alpha TRAV21 TRAJ42 CDR3: AVRSGYGGSQGNL beta TRBV7-8 TRBJ2-5 CDR3: ASSLAGGSLQETQY | 0.7 | 
3 | anti-HA-1H TCR clone 7 (TCR) alpha TRAV3 TRAJ40 CDR3: AVRAPTSGTYKYI beta TRBV7-9 TRBJ2-1 CDR3: ASSLVSGNEQF |  | recognises
